Patent US20260193335A1 (ZOETIS SERVICES, published 2026)

T1: NGF (target of felinized anti-NGF antibodies mAb2 and mAb3)
T1 chain: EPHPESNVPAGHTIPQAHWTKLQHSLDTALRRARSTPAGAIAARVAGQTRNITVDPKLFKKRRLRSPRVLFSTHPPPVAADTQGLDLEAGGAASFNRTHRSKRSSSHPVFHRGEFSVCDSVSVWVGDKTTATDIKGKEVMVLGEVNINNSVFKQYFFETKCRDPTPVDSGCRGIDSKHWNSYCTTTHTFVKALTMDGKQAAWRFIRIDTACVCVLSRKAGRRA


Assays:
[1] = biological target: TGFβ (target of felinized anti-TGFβ antibody mAb6); assay: cell-based or functional assay
[2] = biological target: TGFβ (target of felinized anti-TGFβ antibody mAb6); assay: SPR Biacore T200, target amine-coupled, 15 C
[3] = biological target: Feline FcRn (complex of FcRn-α subunit and β-microglobulin, C-terminal His tag) (feline); assay: SPR Biacore, FcRn amine-coupled on CM5, pH 6
Chain of Feline FcRn (complex of FcRn-α subunit and β-microglobulin, C-terminal His tag) (feline) (chain, as listed by the source, chain 1 of 2): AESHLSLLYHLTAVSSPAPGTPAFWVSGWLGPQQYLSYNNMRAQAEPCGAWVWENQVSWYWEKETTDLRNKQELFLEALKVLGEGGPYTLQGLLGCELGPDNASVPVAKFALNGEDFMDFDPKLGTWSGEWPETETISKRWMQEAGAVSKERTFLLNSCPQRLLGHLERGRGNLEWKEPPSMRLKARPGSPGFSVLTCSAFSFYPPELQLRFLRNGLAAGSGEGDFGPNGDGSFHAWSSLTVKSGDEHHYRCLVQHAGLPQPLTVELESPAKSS
Chain of Feline FcRn (complex of FcRn-α subunit and β-microglobulin, C-terminal His tag) (feline) (Q5MGS7 21-118, chain 2 of 2): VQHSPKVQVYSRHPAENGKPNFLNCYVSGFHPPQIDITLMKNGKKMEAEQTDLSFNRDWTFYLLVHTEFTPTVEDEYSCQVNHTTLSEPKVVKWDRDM

[4] = biological target: Feline FcRn (complex of FcRn-α subunit and β-microglobulin, C-terminal His tag) (feline); assay: SPR Biacore, FcRn amine-coupled on CM5, pH 7.2
[5] = biological target: T2, Feline FcRn (complex of FcRn-α subunit and β-microglobulin, C-terminal His tag) (feline, UniProt A0ABI7ZNY9 23-296; Q5MGS7 21-118); assay: SPR Biacore, FcRn amine-coupled on CM5, pH 6; pH 6; Table 2 run (FcRn amine-coupled on CM5)
T2 construct: treated here as one molecule
Method: (§1) Feline FcRn was isolated, prepared and mutant Fc IgGs were assayed against feline FcRn according to Strietzelg et. al. Standard RACE PCR was used to amplify feline FcRn-α subunit and β-microglobulin. FcRn-α subunit and β-microglobulin were co-transfected into HEK 293 cells and the FcRn complex was purified by IMAC affinity purification via the c-terminal His tag. KD's were measured by Biacore 3000 or Biacore T200 (GE Healthcare, Pittsburgh, PA, USA) using a CM5 sensor chip.
(§2) FcRn was immobilized on the surface of the sensor using the standard amine immobilization method to reach the desired surface density. HBS-EP was used as the immobilization running buffer and 10 mM MES; 150 mM NaCl; 0.005% Tween20; 0.5 mg/mL BSA; pH6 and pH7.2 and PBS; 0.005% Tween20; 0.5 mg/mL BSA; pH7.4 were used for method running buffers and titrations. Fc mutant IgGs were flowed over receptor surfaces and affinity was determined using Scrubber2 software analysis (BioLogic Software Pty, Ltd., Campbell, Australia) or T200 evaluation software (Table 2). Blank runs containing buffer only were subtracted out from all runs. Flow cells were regenerated using 50 mM Tris pH8. Runs were performed at 15° C.

[6] = biological target: T2, Feline FcRn (complex of FcRn-α subunit …); assay: SPR Biacore, FcRn amine-coupled on CM5, pH 7.2; pH 7.2; Table 2 run (FcRn amine-coupled on CM5)
Method: as §1, §2

[7] = biological target: T2, Feline FcRn (complex of FcRn-α subunit …); assay: SPR Biacore, biotin-FcRn on SA chip, pH 6; pH 6; Table 5A run (biotin-FcRn on SA chip), ID 88
Method: Feline FcRn was isolated, prepared and mutant Fc IgGs were assayed against feline FcRn according to Strietzel et. al., discussed above. Standard PCR was used to amplify feline FcRn-α subunit and β-microglobulin. FcRn-α subunit and β-microglobulin were co-transfected into HEK 293 cells and the FcRn complex was purified by IMAC affinity purification via the c-terminal His tag. FcRn complex was biotin labeled through BirA enzymatic biotinylatoin reaction. KD's were measured by Biacore T200 (GE Healthcare, Pittsburgh, PA, USA) or Biacore 8K (Cytiva, Marlborough, MA, USA) using a SA sensor chip.
FcRn was captured on the surface of the sensor using a modified SA capture method. 10 mM MES; 150 mM NaCl; 0.005% Tween20; 0.5 mg/mL BSA; pH6 was used as capture, method running buffer and titrations. 1×HBS-P, 0.5 mg/mL BSA; pH7.4 was also used for method running buffer and titrations. Fc mutant IgGs were flowed over receptor surfaces and affinity was determined using T200 evaluation software or Biacore Insight Evaluation software. Blank runs containing buffer only were subtracted out from all runs. Flow cells were regenerated using 50 mM Tris pH8 or pH9. Runs were performed at 15° C.

[8] = biological target: T1, NGF (target of felinized anti-NGF …); assay: SPR Biacore T200, target amine-coupled, 15 C
Method: Affinity for each mAb was assessed by Biacore and the IC50 was determined via a suitable cell based potency assay.
Flow cell 1 was used as an internal reference to correct running buffer effects. Antibody binding was measured at 15° C. with a contact time of 250 s and flow rate of 30 μl/min. The dissociation period was 300 s. Regeneration was performed with regeneration buffers (10 mM Glycine pH1.5 and 10 mM NaOH) and flow rate at 20 μl/min for 60 s each. Running/dilution buffer (1×HBS-EP, GE Healthcare, BR-1006-69, 10× including 100 mM HEPES, 150 mM NaCl, 30 mM EDTA and 0.5% v/v surfactant P20, pH7.4, 1:10 in filtered MQ H2O) was used as negative control at the same assay format.
Data were analyzed with Biacore T200 Evaluation software by using the method of double referencing. The resulting curve was fitted with the 1:1 binding model. No differences in binding affinities or IC50 were observed between wild-type and 5434 and 5428 mutant IgGs (Table 1).

[9] = biological target: T1, NGF (target of felinized anti-NGF …); assay: cell-based or functional assay
[10] = biological target: T2, Feline FcRn (complex of FcRn-α subunit …); assay: SPR Biacore, biotin-FcRn on SA chip, pH 6
Procedure, shortened: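 Runs at 15° C used either pH 6 buffer (10 mM MES, 150 mM NaCl, 0.005% Tween20, 0.5 mg/mL BSA) or pH 7.4 buffer (1×HBS-P, 0.5 mg/mL BSA), with Fc mutant IgGs as analytes. Receptor was biotinylated feline FcRn complex (co-expressed in HEK 293) on an SA chip. Affinities from blank-subtracted SPR data.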

[11] = biological target: T2, Feline FcRn (complex of FcRn-α subunit …); assay: SPR Biacore, FcRn amine-coupled on CM5, pH 6
Method: as §1, §2

[12] = biological target: T2, Feline FcRn (complex of FcRn-α subunit …); assay: SPR Biacore, FcRn amine-coupled on CM5, pH 7.2
Method: as §1, §2

Row | IC50 (cell based potency assay) [1] | Kd [2] | Kd [3] | Kd [8] | Binder | further results
1 | 9 nM | 0.00375 nM | 120 nM | – | mAb6 (felinized anti-TGFβ antibody of Tables 1 and 2) wild-type, feline IgG1a (antibody, part only; not given: Anti-TGFβ variable domains, antibody unnamed, part only) heavy, part: ASTTAPSVFPLAPSCGTTSGATVALACLVLGYFPEPVTVSWNSGALTSGVHTFPAVLQASGLYSLSSMVTVPSSRWLSDTFTCNVAHPPSNTKVDKTVRKTDHPPGPKPCDCPKCPPPEMLGGPSIFIFPPKPKDTLSISRTPEVTCLVVDLGPDDSDVQITWFVDNTQVYTAKTSPREEQFNSTYRVVSVLPILHQDWLKGKEFKCKVNSKSLPSPIERTISKAKGQPHEPQVYVLPPAQEELSRNKVSVTCLIKSFHPPDIAVEWEITGQPEPENNYRTTPPQLDSDGTYFVYSKLSVDRSHWQRGNTYTCSVSHEALHSHHTQKSLTQSPGK | –
2 | 10 nM | 0.0843 nM | 15 nM | – | mAb6 (felinized anti-TGFβ antibody of Tables 1 and 2) S428L, feline IgG1a (antibody, part only; not given: Anti-TGFβ variable domains, antibody unnamed, part only) heavy, part: ASTTAPSVFPLAPSCGTTSGATVALACLVLGYFPEPVTVSWNSGALTSGVHTFPAVLQASGLYSLSSMVTVPSSRWLSDTFTCNVAHPPSNTKVDKTVRKTDHPPGPKPCDCPKCPPPEMLGGPSIFIFPPKPKDTLSISRTPEVTCLVVDLGPDDSDVQITWFVDNTQVYTAKTSPREEQFNSTYRVVSVLPILHQDWLKGKEFKCKVNSKSLPSPIERTISKAKGQPHEPQVYVLPPAQEELSRNKVSVTCLIKSFHPPDIAVEWEITGQPEPENNYRTTPPQLDSDGTYFVYSKLSVDRSHWQRGNTYTCSVLHEALHSHHTQKSLTQSPGK | Kd [4]: 230 nM
3 | – | – | – | 0.000582 nM | mAb3 (felinized anti-NGF antibody ZTS-768) WT, feline IgG1a (antibody, The same holds for all IgG1a variants of mAb3; also called mAb3 WT; mAb3 ID No. 88) heavy: DVQLVESGGDLVKPGGSLRLTCVASGFTYSNYWMHWVRQAPGKGLQWVARIDPYGGGTKHNEKFKRRFTISRDNAKNTLYLQMNSLKTEDTATYYCVRSGYDYYFDVWGQGTLVTVSSASTTAPSVFPLAPSCGTTSGATVALACLVLGYFPEPVTVSWNSGALTSGVHTFPAVLQASGLYSLSSMVTVPSSRWLSDTFTCNVAHPPSNTKVDKTVRKTDHPPGPKPCDCPKCPPPEMLGGPSIFIFPPKPKDTLSISRTPEVTCLVVDLGPDDSDVQITWFVDNTQVYTAKTSPREEQFNSTYRVVSVLPILHQDWLKGKEFKCKVNSKSLPSPIERTISKAKGQPHEPQVYVLPPAQEELSRNKVSVTCLIKSFHPPDIAVEWEITGQPEPENNYRTTPPQLDSDGTYFVYSKLSVDRSHWQRGNTYTCSVSHEALHSHHTQKSLTQSPGK light: EIQMTQSPSSLSASPGDRVTITCRASENIYSFLAWYQQKPGKVPKLLIYNANTLAEGVPSRFSGSGSGTDFTLTISSLEPEDAATYYCQHHFGTPFTFGSGTKLEIKRSDAQPSVFLFQPSLDELHTGSASIVCILNDFYPKEVNVKWKVDGVVQNKGIQESTTEQNSKDSTYSLSSTLTMSSTEYQSHEKFSCEVTHKSLASTLVKSFQRSECQRE | Kd [5]: 2.95 nM; Kd [6]: 8630 nM; Kd [7]: 26 nM; IC50 (cell based potency assay) [9]: 0.036 nM
4 | – | – | – | 0.00132 nM | mAb3 (felinized anti-NGF antibody ZTS-768) S434H, feline IgG1a (antibody, also called mAb3 S434H; mAb3 ID No. 00) heavy: DVQLVESGGDLVKPGGSLRLTCVASGFTYSNYWMHWVRQAPGKGLQWVARIDPYGGGTKHNEKFKRRFTISRDNAKNTLYLQMNSLKTEDTATYYCVRSGYDYYFDVWGQGTLVTVSSASTTAPSVFPLAPSCGTTSGATVALACLVLGYFPEPVTVSWNSGALTSGVHTFPAVLQASGLYSLSSMVTVPSSRWLSDTFTCNVAHPPSNTKVDKTVRKTDHPPGPKPCDCPKCPPPEMLGGPSIFIFPPKPKDTLSISRTPEVTCLVVDLGPDDSDVQITWFVDNTQVYTAKTSPREEQFNSTYRVVSVLPILHQDWLKGKEFKCKVNSKSLPSPIERTISKAKGQPHEPQVYVLPPAQEELSRNKVSVTCLIKSFHPPDIAVEWEITGQPEPENNYRTTPPQLDSDGTYFVYSKLSVDRSHWQRGNTYTCSVSHEALHHHHTQKSLTQSPGK light: EIQMTQSPSSLSASPGDRVTITCRASENIYSFLAWYQQKPGKVPKLLIYNANTLAEGVPSRFSGSGSGTDFTLTISSLEPEDAATYYCQHHFGTPFTFGSGTKLEIKRSDAQPSVFLFQPSLDELHTGSASIVCILNDFYPKEVNVKWKVDGVVQNKGIQESTTEQNSKDSTYSLSSTLTMSSTEYQSHEKFSCEVTHKSLASTLVKSFQRSECQRE | Kd [10]: 2.6 nM; Kd [11]: 1.02 nM; Kd [12]: 0.524 nM
